Data published in a protein production outcome set (Wang et al. 2014).

Test: label from the status in PepcDB records
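Further: failed if final PepcDB status was selected cloned or expressed and not failed if soluble or beyond.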

Row | Sequence | protein production
1 | AIAAVKAQVLYDFTAEPGNNELTVHEGETLTITNQNVGGGWVEAQNSRGNVGLVPVDYVEVNSASAQAPATQYIDARNQGNNNSTANTQGVNGNEAWTATTWSNSYPADNWNYTEQEPAGNNGSVYSFDEEWDDDSDDGKSTGGYGGSQAEDGGTMQRSGAHSTMKLSLNKFPGFSKTPNPEVYLLTKHITKGNDRLSVYPGEVGPVWLYPQTQLDCVVADPKKGSKMYGLKSYIEYQITPNTTNRPVNHRYKHFDWLYERLVEKFACALPVPGLPDKQVTGRFEEEFIKMRMERLQGWMSRMCRHPVISNSEVFQLFLNYRDEKEWKLGKRKAEKDETVGVKIFSTIDPELPELDPAQVEQKYEVYNQFTRSMDNSVKELLAVGNLHWKRCTGPLQKEYRQIGKAFQNMSSVFNTSGYPRESTLTEALTATGKTYEEIAEVIAAQPRKDLHFLLETNNEYKGLLGCFPDTIGVHKAAIDKVKEADHLVMTNKISQQDKHTMEKNLSTMSYALQAEMNHFHSNRIYDYNRLMQFYLEEQVKFYETIAEKLKKALGQYTTI | failed
2 | AIAEPGSPAGAGAEAPAFYSERKLSRKQLKKLAKAEREYEEERRKELEAAQAVDTAQKRELARIESILRTHALRMEYVEPDGHCLFRALVRQLRPLIQSGLFDTYFPAADTETRSALLTWSTIPDEMEAVWLLRKTLASFIRRRGTEFFPFIVGELDPQGTLLDASDDPAERVAQYCARLEDGTLWGGQPELQAVALALRCRVFVFADPEILPNGMLVMGADDASTDTGAESVTALRVSFHKQFFSLGEHYHAVVPADDSRGDARDPRISAS | not failed
3 | AIAFKRKTAWFSDSVEKEVISFWVSEGGDISSWKTAGYLFSDDASSEDTKRIYGSEDYVKNRATVFHSSFLLACQPRQSVTSVPIGHYVLPPDFVQNEMKAIIGRFIWEKDEQVICEEQINPEVPKDILSGETEDHALRERSSQDDYQTVTSQSKVCSCCEMRQYPVNNMISGYVHIDQMRKYSGELKDFLPSLHGHDVSRSNDPTPPFHRKAV | failed
4 | AIAKETEQVSEAPHGLEGAWLDLTNRVRVSGDTVEACSAFSIGPPRCRWLLQATDRGVNCAALDHYVPHICGTHTETVYHIAHHRYIKRAVCEIPFFRFHKARIQVCTAKIACTEQVLPSADTDYPCLEPNDLIVGPSALNRAPRYTRAQDSTIEALILIVVGPDGTSDWRDGKLDDRPPYLTPAAIESLATRYPNMRHLLTNLPSVDRRRDGGLVRSHRAFFATDFAGDGTPSESPQKTITELLRVPPDWQLYDDAEGVVCISLAPIEGLDAIPSSVYFKSH | failed
5 | AIAPVKKKRKAPGVAAAVAEDAGLKKCKIPSYCRSQPPARLISGEEDFSRKKCLAWFYEYAGPDEVVGPEGMEKFCEDIGVEPENIIMLVLAWKLEAESMGFFTKEEWLKGMTSLQCDCTEKLQSRFDFLRSQLNDISSFKNIYTYAFDFARDKDQRSLDIDTAKSMLALLLGRTWPLFSVFYQYLEQSKYRVMNKDQWYNVLEFSRTVHADLSNYDEDGAWPVLLDEFVEWQKNPSNIIARTVVKTMQTL | failed
6 | AIASERLYYFVIVGRDDRVLYDLLYPASLSELDWRTSSELSSPAERGDFEPHHFIPSIQVLLQFVAYSALDHIEEKYWLTSARSLKHIFRFRDWSASVQLTPNAATRFVLVHGASDDASRNVRAFLHAVYEAYVPHVVCNPFQEEDAPITSKRFHEVAKNLAKRYFSG | failed
7 | AIASNSLEEKKSYFSNRVNLLVENIGTSLRDLLRQGADSSDWNEYAGNLELHLSIENISRDLEELLTLSFEIEVLTLEGNLPQVMSETDGVEAAIQKRIAELNFALEQTGVFSGFSFLYDVNFQQIVEKATRALQKVSDYTPWVLDDGHNM | failed
8 | AIREFNTKEKVFNEFTAVFDVLNHLPAFAKLHLANSMSVRYANTLGISQRNAEVFANRGTSGIDGVISTAYGYALKTSQLVTIITGDLAFFYDRNAFWNNYKPSNLRVVLLNNHGGGIFRMIDGPSALPELDELFETKQTLSARYLATEHGLEYTLCKNLNGLNQALESFFQPSMFGKILEIETDSVKN | failed
9 | AKSEMAFAGKGEISPRAITMWDFSWLERRWPGAGYEDWDQVLDELSERGYNAIRIDAYPHLIAENPMKKWLLKEVWNQQDWGSPDMNEVQVQPNLNLFLSKCKERDIKVGLSSWYRLDVDEVCLKLDTPEKLADCWLTILRSIEEDGLLDTILYVDLCNEWPGDSWAPFFAKTYPNVGWGNWYKEESLRWMKTSLEKMRQVYPDMPFLYSFDHGDVKKYEEVDCSFLDLYEHHIWMAQQNGGEFYKLVGYGYNRFLPDDYKNVVKNAERVYRERPGYWQKLLTDKIELMASVARKNRRPLVTTECWGLVDYKDWPLLKWDWVKDLCELGTITAARTGMWVGVATSNFCGPQFAGMWRDVEWHKRLTSIIRSSPLDESLTKNNEVAAKLLKRL | not failed
10 | ALRERSEGLVLIGRRHLRSNNSWLHNVPALTGGTNRCTLHIHPEDAERLGLTDGAPVRVRGAGGAVTAPVEVTDGIRRGVVSLPHGWGHDRPGTRMSHAALDPGVNVNQLLDGSLLDPLSGNAVLNGVPVELTRT | failed
11 | AMPIAKAIEEKWGVPAEVVIAQAALESGWGKHVKGNAYFGIKGKGSQGSINFGTHEVINGKKISINDNFASYGGFGDAANGYGEFLNKNKRYREAFKHKDNPVEFAKAIARAGYATDPDYANKLTKIIQSNKFS | not failed
12 | ANVKLLLPYILKWEGGFVHDPADAGGATNKGVTIATWKRVGYDKDGDGDIDVEDLKLLTDDDVLNRVLKPFYWDRWKADLIESQKVANILVDWVWGSGKYGIVIPQRILGVQADGIVGNKTLQAVNSADPDELFESIFDARREFLEDITARSIKKYEDSIGRKATERELLRHTNKRFLRGWLNRLEDIRKL | not failed
13 | AQAEVRIDGPIEYGVFESRYQDFQPGERVLTRSEQNIQQTTEVPAKLGTKFGMRYQLSGKQEGDTPLTLLYLTPGVVTPDGQRHDKFEVVQKLVPGAPTDVMAYEFTEPHEVVKGEWRLMVFQGDRLLAEKSFDVR | not failed
14 | AQNQDCAFFFPNQEGEQITRNCYTADGKLTNILVYRVDQAYEYPSGMEVVANYTFADAAGKTLNSGQMVARCSDGNFSMSMGDVATFPTALNMMNADVYMMGDLMNYPDAFSNPMNPGDDDEFDDGTLRLYQKGNKNNRAEISVFDREFVTTETVNTPAGAFYCTKVKYEMNIWTPKETIKGYGYEWYAPNIGIVRSEQYNNKKELQSYSVLERIKK | not failed
15 | ARRASAGELDAAVMHELAPLKMERAVFQTRITEGEPGPEGRDAVAFEVATNPGAPAGPLNRIASGGELSRFLLALKVCLRGDDGGKTMIFDEIDRGVGGATADAVGRRLEALAGAGQVLVVTHSPQVAARGVHHWRV | failed
16 | ARTYRGVELIPVENIYYFLADQKYVTVRHKNGSVLIDETLKELELEFQNRFIRIHRNALVSVDYLDGLEVISSGQYQVRCREVNERLAVSRRHLPYLRDRMQKM | failed
17 | ASETQQWKTLEDTRSALMGVYGLTRAALADNNTHWICGDLRKGDFTVYKRSDLQAVSDNELNKPYDLLKKVSNWRRFYAVINAASVFMEKAPRTVELDRSYSEQNLKYDIAQVRALRAFAYFYMVRIWGDVPLVTYSYDNGTFPSMPRTDAQTVLSYAKAELLTAIEDLPYQYGTQTNLYYGSYGAQWQGKLFNKLSAYSVLAHICAWQGNYAEAETYSAFIIDHASEINAKYTSIADLTSETGLFYSNASVKGSRILGFNFAHNDNEATQSGHLEQLTLAYPLVQKSYPEIYISKDSLFSIFTNFDDLRFGIIDTIKYSSYYVQNLNEETPVFSKIKIIQDGSAKDNDFGVFGSSIVFTRLEDITLLRAEALCALNRSTEAVSYLNMIRTNRGLREVSFKKDFGNNRESLIAEIFEERRRELMGEGWRWYDLVRRQKLMKDNEAFLRLISSGGIYWPVSEDIITANSQIEQNEFWK | not failed
18 | ASHLQFVQPKKAPPLSVSLIQGNIPQDLKWLTEYQFKTLMIYANLTRSEWGRDLIVWPESSIPMFQTDIQPFLDAMNQQAKNRGSAWVTGIPYWDVTGSREVGTPLYYNSIMASGDNSQGLYKKQRLVPFGEYIPLSGLLSWVLPALQNDPSMSGFSQGSNNQKPLMIKGHRLAAAICYEVAYPNLTRRNAENSDFLVTVSNDAWFTGTAGPMQHLQMVQMRAKENGRWFIRATNTGVTAFIDSQGHIVKQAPIDKEAVLRGDLPAMQGETLYTRLSDWPILLFSVLLLILGWIYRPRQVDVSFKSRR | failed
19 | ASNTNLIVNYLPQDMTDRELYALFRAIGPINTCRIMRDYKTGYSYGYAFVDFTSEMDSQRAIKVLNGITVRNKRLKVSYARPGGESIKDTNLYVTNLPRTITDDQLDTIFGKYGSIVQKNILRDKLTGRPRGVAFVRYNKREEAQEAISALNNVIPEGGSQPLSVRLA | not failed
20 | ASRPHQWQTDEEGVRTGKCSFPVKYLGHVEVDESRGMHICEDAVKRLKATGKKAVKAVLWVSADGLRVVDEKTKDLIVDQTIEKVSFCAPDRNFDRAFSYICRDGTTRRWICHCFMAVKDTGERLSHAVGCAFAACLERKQKR | not failed
21 | ATAPTPASSETLSGNPALPPPVPGERHDIDSFGGRLTYWSAAPAEPTSEPPLLLIHSVNAAGSAYEVRPIFEHYARSRPVYAIELPGFGHSSRAKRQYTIRMMTDAVHSVVAEIQKVHADKRIDALALSLGSEFLARAASETPQAFRSLALVAPTGFDKKNQRWTAGSRAIPWLHSFFENPVWSESIFKLLTMKPVIGWFLKKAFGSPSIDQGMLDYDYLTTHQPGAQHAPYYFVSGYLFSQDILRIYQDLPMPVWFSHGVRGDFVDYTLKTTVEGRPNWTVTVFQTGAMPHFEVPGEFMRAYDEFLGRVTKA | failed
22 | ATDSATAAPAAAATTQVQKEAADVLQVAVQGANAMRDIQFARLALFHGQPDSAKKLTDDAAALLAADDASWAKFVKTDAKAKMIADRYVIINASIALSEDYVATPEKESAIQSANEKLAKGDQKGAIDTLRLAGIGVIENQYLMPLNQTRKAVAQSQELLKAGKYYEANLVLKGAEEGIVVDSEMLVAGN | not failed
23 | ATTMEQETCAHSLTFEECPKCSALQYRNGFYLLKYDEEWYPEELLTDGEDDVFDPELDMEVVFELQGNSTSSDKNNSSSEGNEGVIINNFYSNQYQNSIDLSANAAGSDPPRTYGQFSNLLSGAVNAFSNMLPLLADQNTEEMENLSDRVSQDTAGNTVTNTQSTVGRLVGYGTVHDGEHPASCADTASEKILAVERYYTFKVNDWTSTQKPFEYIRIPLPHVLSGEDGGVFGAALRRHYLVKTGWRVQVQCNASQFHAGSLLVFMAPEYPTLDAFAMDNRWSKDNLPNGTRTQTNKKGPFAMDHQNFWQWTLYPHQFLNLRTNTTVDLEVPYVNIAPTSSWTQHASWTLVIAVVAPLTYSTGASTSLDITASIQPVRPVFNGLRHETLSRQ | not failed
24 | AVDLNKENRDPKYVESIVNRSQKIVDKLGLTDAKVAEDVCNVIANRYFELNDIYEIRDAKVKAVKESGLTGDAKNEALKAAENEKDAALYRSHFAFPASLSLFLNEEQIEAVKDGMTYGVVKVTYEATLDMIPSLKEEEKVQIYAWLVEAREFAMDAENSNKKHAAFGKYKGRINNYLAKRGYNLTKEREEWAKRVKARGGTL | not failed
25 | AWAGLQTKHLKVGDIEWVYSESGNSSKPTIILIHGLAGSRDNWNRVAYNLTPYYHVIIPDLPAHGDTKIPNDFDLSIPNLTEKLRRFAEAGHFEKNVHIAGHSMGGAIALLYTAQYPLETKSLLLVDSAGVFKTANTPYLKDPNLLNNLVVKKTGDFDKLFKLATASPPFIPVELKTEQEKLMIAQSKNTQKMVDQLVAMSKIYTPDTFAIATKSIDVPTYIIWGDQDKIINVEAAQELKSLLKNAETPYILKGVGHMPILEADQLVSQQYLIFLNK | failed
26 | AWGLAATGKEFLWVMRPDSVAGEEAVIPKEFLAETADRRMLTSWCPQEKVLSHPAVGGFLTHCGWNSTLESLSCGVPMVGIEIGGDVKRGEVEAVVRELMDGEKGKKMREKAVEWRRLAEKATKLPCGSSVINFETIVNKVLLGKIPNT | failed
27 | AYPDFAPQKFKEKTQGQVKILEDSFLKSSFPTQAELDRLRVETKLSRREIDSWFSERRKLRDSMEQAVLDSMGSGK | not failed
